Values quoted from earlier work, collected in publication PMC5250575.

Molecular target: Kv1.3 (Homo sapiens) (UniProt P22001)
UniProt P22001, sequence (P22001 whole entry): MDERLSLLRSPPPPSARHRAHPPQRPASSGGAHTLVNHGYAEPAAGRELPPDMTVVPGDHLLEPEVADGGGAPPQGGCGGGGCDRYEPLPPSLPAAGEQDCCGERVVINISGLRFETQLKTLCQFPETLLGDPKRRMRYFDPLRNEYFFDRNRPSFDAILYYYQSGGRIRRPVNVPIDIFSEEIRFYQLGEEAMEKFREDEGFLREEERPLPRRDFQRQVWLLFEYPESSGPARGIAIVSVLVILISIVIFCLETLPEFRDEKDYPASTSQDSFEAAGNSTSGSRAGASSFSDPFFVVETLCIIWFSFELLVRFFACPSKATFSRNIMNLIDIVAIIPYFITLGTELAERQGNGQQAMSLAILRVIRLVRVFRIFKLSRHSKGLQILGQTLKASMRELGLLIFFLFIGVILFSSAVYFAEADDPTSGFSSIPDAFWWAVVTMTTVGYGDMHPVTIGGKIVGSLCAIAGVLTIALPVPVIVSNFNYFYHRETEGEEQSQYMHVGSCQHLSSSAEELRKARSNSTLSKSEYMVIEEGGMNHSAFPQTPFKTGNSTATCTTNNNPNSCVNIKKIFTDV

## Margatoxin (from UniProt P40755)
  Kd: 0.0117 nM
